According to patent US20060287320A1, “Preparation of thioarabinofuranosyl compounds and use thereof” (Southern Research Institute, priority 1998, published 2006):

Legend:
Assay in all cases: purified protein, by the assay type
[1] = substrate: Nc1ccn([C@@H]2S[C@H](CO)[C@@H](O)[C@@H]2O)c(=O)n1
[2] = substrate: Nc1ccn([C@H]2C[C@H](O)[C@@H](CO)O2)c(=S)n1; settings: other: dCyd deaminase activity from human placenta, pH 7.4, mean and standard deviation from 3 experiments
Experimental: (§1) Reactions were carried out in solutions containing 20 mM potassium phosphate (pH 7.4), 100 mM KCl, various concentrations of radiolabeled nucleoside, and enzyme. The reactions were stopped with acid, the substrate was separated from the product by paper chromatography, and the radioactivity in each were determined. The kinetic constants were determined from linear double-reciprocal plots of 1/velocity versus 1/concentration of the substrate. The best line was determined by linear regression from at least 5 datum points, and the Km and Vmax were determined from the x and y intercepts. The data presented are the mean and standard deviation from 3 separate experiments.

[3] = substrate: Nc1ccn([C@H]2C[C@H](O)[C@@H](CO)O2)c(=O)n1; settings: other: dCyd deaminase activity from human placenta, pH 7.4, mean and standard deviation from 3 experiments
Experimental: as §1

[4] = other: dCyd deaminase activity from human placenta, pH 7.4, mean and standard deviation from 3 experiments

B1: dCyd Deaminase Activity Isolated from Human Placenta (Homo sapiens) (protein)
chain: MAQKRPACTLKPECVQQLLVCSQEAKKSAYCPYSHFPVGAALLTQEGRIFKGCNIENACYPLGICAERTAIQKAVSEGYKDFRAIAIASDMQDDFISPCGACRQVMREFGTNWPVYMTKPDGTYIVMTVQELLPSSFGPEDLQKTQ
[1]; [4]
  Km: 2944 ± 1023 µM
  Vmax: 2.1e-05 µmol/min/mg
[2]
  Km: 111 ± 77 µM
  Vmax: 3.7e-05 µmol/min/mg
[3]
  Km: 23 ± 2.7 µM
  Vmax: 1.3e-05 µmol/min/mg

B2: cytidine deaminase (Homo sapiens) (protein)
chain: B1 chain
[1]; other: cytidine deaminase, radioactive substrates
  Km: 2570 µM
